Positions count from the first letter of the chain named.

In one assay the target is T1, RAD54-T700D, recombinant (human, UniProt Q92698 1-747, T700D).
T1 construct: human RAD54 (RAD54L) with the phosphomimic change T700D; also called purified RAD54-T700D; CTD mutant; source: recombinant, purified
T1 sequence (looked up): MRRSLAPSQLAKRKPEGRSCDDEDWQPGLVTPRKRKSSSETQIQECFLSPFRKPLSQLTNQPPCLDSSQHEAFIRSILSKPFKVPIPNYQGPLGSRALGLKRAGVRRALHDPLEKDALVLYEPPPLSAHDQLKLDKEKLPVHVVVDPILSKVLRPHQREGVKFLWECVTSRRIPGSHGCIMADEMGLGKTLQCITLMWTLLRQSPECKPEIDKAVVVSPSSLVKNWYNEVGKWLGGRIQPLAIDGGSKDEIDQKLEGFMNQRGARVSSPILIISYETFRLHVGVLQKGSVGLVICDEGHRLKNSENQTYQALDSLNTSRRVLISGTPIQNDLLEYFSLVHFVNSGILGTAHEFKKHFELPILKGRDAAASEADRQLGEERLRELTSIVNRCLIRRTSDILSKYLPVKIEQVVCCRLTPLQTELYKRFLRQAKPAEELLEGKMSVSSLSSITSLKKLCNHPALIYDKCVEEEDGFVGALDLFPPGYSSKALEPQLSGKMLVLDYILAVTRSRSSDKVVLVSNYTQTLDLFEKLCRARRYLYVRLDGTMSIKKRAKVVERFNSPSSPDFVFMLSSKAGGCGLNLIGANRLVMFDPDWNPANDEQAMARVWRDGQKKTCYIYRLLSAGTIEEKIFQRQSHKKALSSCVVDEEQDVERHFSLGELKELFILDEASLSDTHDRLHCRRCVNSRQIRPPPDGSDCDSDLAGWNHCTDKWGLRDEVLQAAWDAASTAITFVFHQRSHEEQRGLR
Kind of assay: pull-down; purified RAD54 forms with RAD51; reactions eluted from beads, eluate and supernatant on silver-stained gels, quantified; which protein was held on the beads is not told. The settings on record: both partners purified.

The target of assay [1] is T2, RAD54-T41, T59D (RAD54-T2D), recombinant (human, UniProt Q92698 1-747, T41D | T59D).
T2 construct: human RAD54 (RAD54L) with the phosphomimic changes T41D and T59D; also called NTD phosphomimic; source: recombinant, purified
T2 sequence (looked up): T1 sequence (looked up) with T41D, T59D, D700T
Described as above. Particulars: both partners purified.

B1: recombinant human RAD51 (natural protein, UniProt Q06609 1-339, looked up)
chain: MAMQMQLEANADTSVEEESFGPQPISRLEQCGINANDVKKLEEAGFHTVEAVAYAPKKELINIKGISEAKADKILAEAAKLVPMGFTTATEFHQRRSEIIQITTGSKELDKLLQGGIETGSITEMFGEFRTGKTQICHTLAVTCQLPIDRGGGEGKAMYIDTEGTFRPERLLAVAERYGLSGSDVLDNVAYARAFNTDHQTQLLYQASAMMVESRYALLIVDSATALYRTDYSGRGELSARQMHLARFLRMLLRLADEFGVAVVITNQVVAQVDGAAMFAADPKKPIGGNIIAHASTTRLYLRKGRGETRICKIYDSPCLPEAEAMFAINADGVGDAKD
notes: human RAD51 recombinase; also called rc-RAD51
For B1, the binding result is “binds” in the assay with RAD54-T700D, recombinant and “binds” in assay [1].

For the origin of these results see PMC10484734, “TLK1-mediated RAD54 phosphorylation spatio-temporally regulates Homologous Recombination Repair” (Nucleic Acids Research, 2023).
